What was measured:
[1] = molecular target: T1, recombinant CD99 extracellular domain (fusion partner not given) (human, UniProt P14209 23-122); assay: Western blot of recombinant CD99
T1 construct: also called CD99 ECD; human CD99; not shown: N-terminal 6xHis tag, AviTag, TEV site and a fusion partner (SUMO or GFP)
T1 sequence: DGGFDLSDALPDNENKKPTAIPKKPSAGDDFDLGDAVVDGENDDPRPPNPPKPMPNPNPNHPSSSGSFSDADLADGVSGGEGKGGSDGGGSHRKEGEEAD

[2] = molecular target: T2, CD99 endogenously expressed on cells (Jurkat, KOPT-K1) (human, UniProt P14209 23-185, O-linked glycosylation (natural, on cells)); assay: flow cytometry on Jurkat cells (FIG. 1E)
T2 construct: also called endogenously expressed CD99; CD99 on cells
T2 sequence: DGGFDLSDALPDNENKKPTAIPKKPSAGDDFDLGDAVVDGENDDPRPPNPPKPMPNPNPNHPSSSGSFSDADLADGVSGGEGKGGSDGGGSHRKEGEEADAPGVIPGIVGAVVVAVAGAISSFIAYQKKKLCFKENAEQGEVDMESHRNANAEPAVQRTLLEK
Description: (§1) The cells were washed three times, and resuspended in 100 μL of PBS/2% FBS and analyzed on a HyperCyt screener (Satorius). […] Gating for flow cytometry consisted of FSC vs SSC cell gating, followed by single cell gating in FSC-H or FSC-A vs FSC-W to remove aggregates. For all samples cells were gated for Propidium Iodide negative. […] Data collection performed on ZE5 Cell Analyzer (BioRad) or Guava easyCyte (Luminex) flow cytometers. Signals reported are median fluorescence intensities.
To assess if the antibodies bind to CD99 with posttranslational modifications, their binding to CD99 on cells was tested.

[3] = molecular target: T3, CD99L2 extracellular domain (human, UniProt Q8TCZ2 26-185); assay: binding of scFv-Fc to immobilized homolog ECDs (FIG. 1B)
T3 construct: extracellular domain
T3 sequence (looked up): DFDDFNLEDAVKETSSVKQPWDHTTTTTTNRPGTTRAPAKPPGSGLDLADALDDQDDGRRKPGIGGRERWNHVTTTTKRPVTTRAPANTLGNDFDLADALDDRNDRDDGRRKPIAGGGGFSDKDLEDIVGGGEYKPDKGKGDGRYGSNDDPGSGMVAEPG

[4] = molecular target: T4, Glycoprotein Xg extracellular domain (human, UniProt P55808 22-142); assay: as above
T4 construct: extracellular domain
T4 sequence (looked up): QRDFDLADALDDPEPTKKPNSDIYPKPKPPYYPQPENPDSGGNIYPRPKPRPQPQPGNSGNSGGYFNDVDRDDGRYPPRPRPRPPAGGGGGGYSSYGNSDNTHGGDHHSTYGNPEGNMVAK

mouse CD99 = molecular target: T5, mouse CD99 (mouse, UniProt Q8VCN6 29-137, limits assumed); assay: binding of scFv-Fc to CD99 from different species (FIG. 1C)
T5 sequence (looked up): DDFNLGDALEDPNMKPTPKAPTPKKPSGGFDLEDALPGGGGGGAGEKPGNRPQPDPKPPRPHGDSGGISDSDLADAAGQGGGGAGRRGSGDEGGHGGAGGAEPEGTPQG

[5] = molecular target: T6, SAV-CD99 complex (biotinylated CD99 ECD tetramerized on streptavidin) (human, UniProt P22629 37-163 (Streptomyces avidinii entry), limits assumed, DyLight650 label; biotin on the AviTag); assay: yeast display binding signal (FIG. 5E)
T6 construct: also called tetramerized CD99; tetramerized SUMO-CD99; not shown: N-terminal 6xHis tag, AviTag, TEV site and fusion partner
T6 sequence (P22629 37-163 limits assumed, one chain of several): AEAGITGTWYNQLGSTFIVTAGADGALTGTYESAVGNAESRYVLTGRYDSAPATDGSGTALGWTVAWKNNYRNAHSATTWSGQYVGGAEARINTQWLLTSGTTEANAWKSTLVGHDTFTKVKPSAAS

[6] = molecular target: T2, CD99 endogenously expressed on cells …; assay: cell-based or functional assay
[7] = molecular target: T2, CD99 endogenously expressed on cells …; assay: flow cytometry titration on KOPT-K1 cells; apparent KD (FIG. 3B)
Description: as §1
To assess if enhanced cytotoxic effect is the consequence of enhanced binding to cells, binding of these antibodies was measured to KOPT-K1 cells (FIG. 3B).

[8] = molecular target: T2, CD99 endogenously expressed on cells …; assay: flow cytometry titration on Jurkat cells (FIG. 1G)
Description: The cells were washed three times, and resuspended in 100 μL of PBS/2% FBS and analyzed on a HyperCyt screener (Satorius). […] Gating for flow cytometry consisted of FSC vs SSC cell gating, followed by single cell gating in FSC-H or FSC-A vs FSC-W to remove aggregates. For all samples cells were gated for Propidium Iodide negative. T-ALL patient samples cells were then gated for human CD45 positive followed by CD34 negative, and finally CD7 positive. For healthy donor PBMC samples cells were gated for human CD45 positive followed by CD34 positive and CD34 negative. Data collection performed on ZE5 Cell Analyzer (BioRad) or Guava easyCyte (Luminex) flow cytometers. Signals reported are median fluorescence intensities.

B1: clone 30 in the scFv-Fc format (Fc fusion)
chain: EVQLLETGGGLVQPGGSLRLSCAASGFTFSSSAMHWVRQAPGKGLEWVAAISYDGSDTYYADSVKGRFTISRDNAKNTLYLQMNSLRDEDTAVYYCARDQVLGSGSLDYWGQGTLVTVSSGILGSGGGGSGGGGSGGGGSNFMLTQPHSVSESPGKTVTISCTRSSGSIGSYYVQWYQQRPGSPPTTVIYEDDKRPSGVPDRFSGSIDSSSNSASLTISGLKTEDEADYYCQSYDSSHVVFGGGTKLTVLSGSSSSLEGCKPCICTVPEVSSVFIFPPKPKDVLTITLTPKVTCVVVDISKDDPEVQFSWFVDDVEVHTAQTQPREEQFNSTFRSVSELPIMHQDWLNGKEFKCRVNSAAFPAPIEKTISKTKGRPKAPQVYTIPPPKEQMAKDKVSLTCMITDFFPEDITVEWQWNGQPAENYKNTQPIMDTDGSYFVYSKLNVQKSNWEAGNTFTCSVLHEGLHNHHTEKSLSHSPGKGGGGLNDIFEAQKIEWHESRHHHHHH
notes: The format mimics the bivalent IgG architecture
[1]
  binding result: binds
[2]
  binding result: binds
[3]
  binding result: no binding (tested: 600 nM Fv)
[4]
  binding result: no binding (tested: 600 nM Fv)
Mouse CD99
  binding result: no binding (tested: 1 µM Fv)

B2: 10A1 with light chain D50 mutated to serine (yeast display format) (scFv, V domains shown)
VH: QVQLQQSGPVLVKPSQTLSLTCAISGDSISSDTTAWSWIRRSPSRGLEWLGWTYYRSKWFNYYAVSVKGRVTINPDTSKNQFSLQLSSVTPEDTAVYYCARGNGNGGMDVWGQGTTVTVSS
VL: SYVLTQPASASVSPGQTARITCSGDALPKQYAYWYQQKPGQAPVLVIFKSSERPSGVPERFSGSSSGTTVTLTISGAQAEDEADYYCQSVDNSGFYQVFGGGTQLTVL
notes: also called D50L to serine
[5]
  binding result: no binding (tested: 100 nM SAV-CD99 complex)

B3: 10A1 with light chain D91 mutated to serine (yeast display format) (scFv, V domains shown)
VH: QVQLQQSGPVLVKPSQTLSLTCAISGDSISSDTTAWSWIRRSPSRGLEWLGWTYYRSKWFNYYAVSVKGRVTINPDTSKNQFSLQLSSVTPEDTAVYYCARGNGNGGMDVWGQGTTVTVSS
VL: SYVLTQPASASVSPGQTARITCSGDALPKQYAYWYQQKPGQAPVLVIFKDSERPSGVPERFSGSSSGTTVTLTISGAQAEDEADYYCQSVSNSGFYQVFGGGTQLTVL
notes: also called D91L to serine
[5]
  binding result: no binding (tested: 100 nM SAV-CD99 complex)

B4: clone 10 in the scFv-Fc format (Fc fusion)
chain: QVQLQQSGPVLVKPSQTLSLTCAISGDSVSSDTTAWSWIRQSPSRGLEWLGWTYYRSKWFNYYAVSVKSRVTINPDTSKNQFSLQLSSVTPEDTAVYYCARGNGNGGMDVWGQGTTVTVSSGILGSGGGGSGGGGSGGGGSSYVLTQPPSVSVSPGQTARITCSGDALPKQYAYWYQQKPGQAPVLVIFKDSERPSGIPERFSGSSSGTTVTLTISGVQAEDEADYYCQSADNSGFYQVFGGGTQLTVLSGSSSSLEGCKPCICTVPEVSSVFIFPPKPKDVLTITLTPKVTCVVVDISKDDPEVQFSWFVDDVEVHTAQTQPREEQFNSTFRSVSELPIMHQDWLNGKEFKCRVNSAAFPAPIEKTISKTKGRPKAPQVYTIPPPKEQMAKDKVSLTCMITDFFPEDITVEWQWNGQPAENYKNTQPIMDTDGSYFVYSKLNVQKSNWEAGNTFTCSVLHEGLHNHHTEKSLSHSPGKGGGGLNDIFEAQKIEWHESRHHHHHH
notes: also called Clone 10 scFv-Fc antibody
[1]
  binding result: binds
[3]
  binding result: no binding (tested: 600 nM Fv)
[4]
  binding result: no binding (tested: 600 nM Fv)

B5: 10A1 IgG-E345R (antibody)
heavy: QVQLQQSGPVLVKPSQTLSLTCAISGDSISSDTTAWSWIRRSPSRGLEWLGWTYYRSKWFNYYAVSVKGRVTINPDTSKNQFSLQLSSVTPEDTAVYYCARGNGNGGMDVWGQGTTVTVSSASTKGPSVFPLAPSSKSTSGGTAALGCLVKDYFPEPVTVSWNSGALTSGVHTFPAVLQSSGLYSLSSVVTVPSSSLGTQTYICNVNHKPSNTKVDKKVEPKSCDKTHTCPPCPAPEAAGGPSVFLFPPKPKDTLMISRTPEVTCVVVDVSHEDPEVKFNWYVDGVEVHNAKTKPREEQYNSTYRVVSVLTVLHQDWLNGKEYKCKVSNKALGAPIEKTISKAKGQPRRPQVYTLPPSREEMTKNQVSLTCLVKGFYPSDIAVEWESNGQPENNYKTTPPVLDSDGSFFLYSKLTVDKSRWQQGNVFSCSVMHEALHNHYTQKSLSLSPGK
light: SYVLTQPASASVSPGQTARITCSGDALPKQYAYWYQQKPGQAPVLVIFKDSERPSGVPERFSGSSSGTTVTLTISGAQAEDEADYYCQSVDNSGFYQVFGGGTQLTVLRTVAAPSVFIFPPSDEQLKSGTASVVCLLNNFYPREAKVQWKVDNALQSGNSQESVTEQDSKDSTYSLSSTLTLSKADYEKHKVYACEVTHQGLSSPVTKSFNRGEC
notes: Valency of twelve as a hexamer; also called 10A1 E345R; 'inducible hexamer'
[6]
  IC50 of cytotoxicity (Annexin V, KOPT-K1 cells, 18 hours): 299 nM Fv
[7]
  fold higher KD than IgG-RGY, IgG-HCscFv and IgG: ~3 fold

B6: 10A1 IgG-RGY (antibody)
heavy: QVQLQQSGPVLVKPSQTLSLTCAISGDSISSDTTAWSWIRRSPSRGLEWLGWTYYRSKWFNYYAVSVKGRVTINPDTSKNQFSLQLSSVTPEDTAVYYCARGNGNGGMDVWGQGTTVTVSSASTKGPSVFPLAPSSKSTSGGTAALGCLVKDYFPEPVTVSWNSGALTSGVHTFPAVLQSSGLYSLSSVVTVPSSSLGTQTYICNVNHKPSNTKVDKKVEPKSCDKTHTCPPCPAPEAAGGPSVFLFPPKPKDTLMISRTPEVTCVVVDVSHEDPEVKFNWYVDGVEVHNAKTKPREEQYNSTYRVVSVLTVLHQDWLNGKEYKCKVSNKALGAPIEKTISKAKGQPRRPQVYTLPPSREEMTKNQVSLTCLVKGFYPSDIAVEWESNGQPENNYKTTPPVLDSDGSFFLYSKLTVDKSRWQQGNVFSCSVMHGALHNHYTQKYLSLSPGK
light: SYVLTQPASASVSPGQTARITCSGDALPKQYAYWYQQKPGQAPVLVIFKDSERPSGVPERFSGSSSGTTVTLTISGAQAEDEADYYCQSVDNSGFYQVFGGGTQLTVLRTVAAPSVFIFPPSDEQLKSGTASVVCLLNNFYPREAKVQWKVDNALQSGNSQESVTEQDSKDSTYSLSSTLTLSKADYEKHKVYACEVTHQGLSSPVTKSFNRGEC
[6]
  IC50 of cytotoxicity (Annexin V, KOPT-K1 cells, 18 hours): 442 nM Fv

B7: 10A1 in the scFv-Fc format (Fc fusion)
chain: QVQLQQSGPVLVKPSQTLSLTCAISGDSISSDTTAWSWIRRSPSRGLEWLGWTYYRSKWFNYYAVSVKGRVTINPDTSKNQFSLQLSSVTPEDTAVYYCARGNGNGGMDVWGQGTTVTVSSGILSGSSSSGSSSSGSSSSGYVLTQPASASVSPGQTARITCSGDALPKQYAYWYQQKPGQAPVLVIFKDSERPSGVPERFSGSSSGTTVTLTISGAQAEDEADYYCQSVDNSGFYQVFGGGTQLTVLSGSSSSLEGCKPCICTVPEVSSVFIFPPKPKDVLTITLTPKVTCVVVDISKDDPEVQFSWFVDDVEVHTAQTQPREEQFNSTFRSVSELPIMHQDWLNGKEFKCRVNSAAFPAPIEKTISKTKGRPKAPQVYTIPPPKEQMAKDKVSLTCMITDFFPEDITVEWQWNGQPAENYKNTQPIMDTDGSYFVYSKLNVQKSNWEAGNTFTCSVLHEGLHNHHTEKSLSHSPGKGGGGLNDIFEAQKIEWHESRHHHHHH
notes: Bivalent; also called 10A1 scFv-Fc
[8]
  fold improvement of apparent KD over Clone 10: 14 fold

B8: clone 22 in the scFv-Fc format (Fc fusion)
chain: QVQLQQSGPGLVKPSQTLSLTCAISGDSVSSNSAAWNWIRQSPSRGLEWLGRTYYRSKWYNDYAVSVKSRITINPDTSKNQFSLQLNSVTPEDTAVYYCARGSYGSGLVWGQGTTVTVSSGSASAPTGILGSGGGGSGGGGSGGGGSNFMLTQPHSVSESPGKTVTISCTGSSGSIASNYVQWYQQRPGSAPTTVIYEDDQRPSGVPDRFSGSLDTSSNSASLTISGLRPEDEADYYCQSYDNKDNVVFGGGTKVTVLSGSSSSLEGCKPCICTVPEVSSVFIFPPKPKDVLTITLTPKVTCVVVDISKDDPEVQFSWFVDDVEVHTAQTQPREEQFNSTFRSVSELPIMHQDWLNGKEFKCRVNSAAFPAPIEKTISKTKGRPKAPQVYTIPPPKEQMAKDKVSLTCMITDFFPEDITVEWQWNGQPAENYKNTQPIMDTDGSYFVYSKLNVQKSNWEAGNTFTCSVLHEGLHNHHTEKSLSHSPGKGGGGLNDIFEAQKIEWHESRHHHHHH
notes: as for B1
[1]
  binding result: binds
[2]
  binding result: binds
[3]
  binding result: no binding (tested: 600 nM Fv)
[4]
  binding result: no binding (tested: 600 nM Fv)
Mouse CD99
  binding result: no binding (tested: 1 µM Fv)

— patent US20240190985A1 (NEW YORK UNIVERSITY, published 2024)
